One test deals with T1, human DCIR (human, UniProt Q9UMR7 1-237).
T1 construct: whole, on cells; The assay was on primary human blood DCs
T1 sequence (looked up): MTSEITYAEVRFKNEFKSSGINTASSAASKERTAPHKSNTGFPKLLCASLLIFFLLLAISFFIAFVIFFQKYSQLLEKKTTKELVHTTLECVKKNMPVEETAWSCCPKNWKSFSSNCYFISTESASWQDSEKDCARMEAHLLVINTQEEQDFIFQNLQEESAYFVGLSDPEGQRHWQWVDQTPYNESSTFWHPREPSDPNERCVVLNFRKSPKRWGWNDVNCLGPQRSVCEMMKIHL
Put plainly: flow cytometry on purified human blood pDCs, detection with anti-human IL-10. As to the method:
(§1) The ability of antibody-IL-10 fusion proteins to bind to human DCs was measured. Both myeloid DC (mDCs) and plasmacytoid DCs (pDCs) were purified from human blood. DCs were incubated for 20 min in ice in the presence of different concentrations of recombinant fusion proteins of antibody and IL-10 (FIG. 1). After vigorous washing, DCs were further stained with anti-human IL-10 to detect surface bound antibody-IL-10 fusion proteins using flow cytometry.
Background: A flow cytometer gives signals particle by particle.

For the next test, the target named is T2, human CD40 (human, UniProt P25942 21-277).
T2 construct: whole, on cells; The assay was on primary human blood DCs; also called hCD40
T2 sequence (P25942 21-277): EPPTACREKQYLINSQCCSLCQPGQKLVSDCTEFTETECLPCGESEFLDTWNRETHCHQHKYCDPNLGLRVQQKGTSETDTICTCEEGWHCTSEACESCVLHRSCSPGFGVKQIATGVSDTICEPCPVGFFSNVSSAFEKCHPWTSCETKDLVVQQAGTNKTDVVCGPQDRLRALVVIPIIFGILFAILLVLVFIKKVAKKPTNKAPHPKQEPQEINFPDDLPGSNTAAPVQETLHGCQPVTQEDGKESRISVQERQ
Put plainly: flow cytometry on purified human blood mDCs, detection with anti-human IL-10. As to the method: as §1

B1: mAnti-DCIR_9E8_H-LV-hIgG4H-C-Flex-v1-hIL-10 antibody (antibody)
heavy: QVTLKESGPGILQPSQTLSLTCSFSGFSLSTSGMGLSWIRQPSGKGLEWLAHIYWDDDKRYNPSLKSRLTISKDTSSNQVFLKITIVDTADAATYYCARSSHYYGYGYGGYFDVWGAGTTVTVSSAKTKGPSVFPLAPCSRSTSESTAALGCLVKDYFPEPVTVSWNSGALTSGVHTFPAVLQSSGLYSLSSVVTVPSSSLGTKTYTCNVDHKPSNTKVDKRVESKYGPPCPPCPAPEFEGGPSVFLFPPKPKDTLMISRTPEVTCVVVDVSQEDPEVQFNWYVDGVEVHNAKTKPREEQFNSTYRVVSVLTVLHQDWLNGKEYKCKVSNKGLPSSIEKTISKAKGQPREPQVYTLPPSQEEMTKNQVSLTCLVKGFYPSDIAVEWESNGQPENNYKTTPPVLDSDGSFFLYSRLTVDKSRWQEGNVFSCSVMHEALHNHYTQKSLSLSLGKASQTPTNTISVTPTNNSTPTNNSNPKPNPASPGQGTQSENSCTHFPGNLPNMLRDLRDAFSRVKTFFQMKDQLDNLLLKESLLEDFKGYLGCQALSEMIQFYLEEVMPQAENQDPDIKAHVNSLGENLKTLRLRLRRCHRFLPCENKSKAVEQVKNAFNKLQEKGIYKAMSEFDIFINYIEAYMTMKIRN
light: NIVLTQSPASLAVSLGQRATISCRASESIHSYGNSFLHWYQQKPGQPPKLLIYLASNLESGVPARFSGSGSRTDFTLTIDPVEADDAATYYCQQNNEDPWTFGGGTKLEIKRTVAAPSVFIFPPSDEQLKSGTASVVCLLNNFYPREAKVQWKVDNALQSGNSQESVTEQDSKDSTYSLSSTLTLSKADYEKHKVYACEVTHQGLSSPVTKSFNRGEC
notes: Mouse/human chimeric IgG4 kappa antibody with human IL-10 fused through a linker to the C-terminus of the heavy chain; also called anti-DCIR (9E8)-IL-10; Anti-DCIR-9E8-hIL-10
Regarding B1, in the test with human DCIR, the binding result is recorded as “binds”.

B2: manti-hCD40_24A3.3F1_H-LV-hIgG4H-C-Flex-v1-hIL-10 antibody (antibody)
heavy: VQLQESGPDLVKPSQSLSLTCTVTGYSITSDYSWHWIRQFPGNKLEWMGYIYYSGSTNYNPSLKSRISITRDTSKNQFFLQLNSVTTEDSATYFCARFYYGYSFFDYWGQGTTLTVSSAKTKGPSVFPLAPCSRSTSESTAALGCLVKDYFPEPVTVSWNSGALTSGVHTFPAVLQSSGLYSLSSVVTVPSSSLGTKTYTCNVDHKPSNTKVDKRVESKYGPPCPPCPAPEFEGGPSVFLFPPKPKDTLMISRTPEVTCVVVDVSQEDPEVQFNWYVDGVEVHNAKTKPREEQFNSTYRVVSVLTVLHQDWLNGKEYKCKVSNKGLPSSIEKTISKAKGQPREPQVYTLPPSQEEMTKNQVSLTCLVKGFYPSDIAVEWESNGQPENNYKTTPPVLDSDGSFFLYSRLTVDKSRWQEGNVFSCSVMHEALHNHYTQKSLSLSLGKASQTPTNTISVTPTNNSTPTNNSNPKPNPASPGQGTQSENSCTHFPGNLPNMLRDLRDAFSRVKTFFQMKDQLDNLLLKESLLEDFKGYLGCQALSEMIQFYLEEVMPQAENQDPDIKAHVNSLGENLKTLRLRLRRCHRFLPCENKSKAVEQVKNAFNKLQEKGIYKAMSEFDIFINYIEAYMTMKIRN
light: QIVLTQSPAFMSASPGEKVTMTCSASSSVSYMHWYQQKSGTSPKRWIYDTSKLASGVPARFSGSGSGTSYSLTISSMEAEDAATYYCQQWSSNPLTFGAGTKLEIKRTVAAPSVFIFPPSDEQLKSGTASVVCLLNNFYPREAKVQWKVDNALQSGNSQESVTEQDSKDSTYSLSSTLTLSKADYEKHKVYACEVTHQGLSSPVTKSFNRGECAS
notes: Mouse/human chimeric IgG4 kappa antibody with human IL-10 fused through a linker to the C-terminus of the heavy chain; also called anti-CD40 (24A3)-IL-10; Anti-CD40-24A3-hIL-10
Take B2: the binding result with human CD40 is “binds”.

(Values after patent publication US20170106051A1 (BAYLOR RESEARCH INSTITUTE, published 2017).)
